The values that follow come from patent publication US20130245385A1.

For the test, the target named is sHLA-A2 (soluble class I HLA-A2) (human). The experiment in a line: 65 ml class I HLA SHARC, 24.4 mg W6/32 at 97 µg/ml in PBS.

Substance “W6/32 pan class I HLA monoclonal antibody” displayed an antibody recovered in the elution of 8 mg and an antibody that passed through the column of 11.7 mg.
